In article PMC10681739, “High-throughput data and modeling reveal insights into the mechanisms of cooperative DNA-binding by transcription factor proteins” one finds binding signal data, which are given here for 42 molecules.

In the data set the target is ETS1:RUNX1 (Homo sapiens, UniProt P14921;Q01196 full;full). In words: gcPBM; 1 nM ETS1 + 25 nM RUNX1, anti-ETS1 signal, normalised. Particulars: tags: N-terminal GST (pDEST15), kept (PMC6008103); copies: 1;1; label: surface-attached array probe.

B1: Table S2 A row 769 (dsDNA)
DNA 1: CAAGCCAACATCCTGACAGTTTAGAAACCACAGGAG
DNA 2: CTCCTGTGGTTTCTAAACTGTCAGGATGTTGGCTTG
Regarding B1, the binding signal was 1670 PBM fluorescence, median of replicate spots.

B2: Table S2 A row 1415 (dsDNA)
DNA 1: AGGCTGTGTGAAGGATGTGGTCAGGCGGAGGCCAGG
DNA 2: CCTGGCCTCCGCCTGACCACATCCTTCACACAGCCT
With B2, the binding signal is 2710 PBM fluorescence, median of replicate spots.

B3: Table S2 A row 1686 (dsDNA)
DNA 1: TGAGCCTTGGAAGGAAATGATTCACCACAATACTGT
DNA 2: ACAGTATTGTGGTGAATCATTTCCTTCCAAGGCTCA
In the case of B3, the binding signal is 2590 PBM fluorescence, median of replicate spots.

B4: Table S2 A row 195 (dsDNA)
DNA 1: GCTCCCGGATGTTCTGGGGATCTGCGGCCGCCTGGC
DNA 2: GCCAGGCGGCCGCAGATCCCCAGAACATCCGGGAGC
In the case of B4, the binding signal is 2440 PBM fluorescence, median of replicate spots.

B5: Table S2 A row 127 (dsDNA)
DNA 1: CAAGCCAGGAAGAGGGCCCTCACCAGAAACCGCACT
DNA 2: AGTGCGGTTTCTGGTGAGGGCCCTCTTCCTGGCTTG
Regarding B5, the binding signal was 1640 PBM fluorescence, median of replicate spots.

B6: Table S2 A row 1529 (dsDNA)
DNA 1: GGTGCCTGGGGAGGATGTGGGCTGACTGGGAGGGGT
DNA 2: ACCCCTCCCAGTCAGCCCACATCCTCCCCAGGCACC
With B6, the binding signal is 1520 PBM fluorescence, median of replicate spots.

B7: Table S2 A row 1447 (dsDNA)
DNA 1: ACACCTCAGGAAGTGGCAGAGACCACAACAAGTCAG
DNA 2: CTGACTTGTTGTGGTCTCTGCCACTTCCTGAGGTGT
With B7, the binding signal is 2380 PBM fluorescence, median of replicate spots.

B8: Table S2 A row 342 (dsDNA)
DNA 1: ACACCCCAGGAAGTGGCAGAGACCACAACAAGTCAG
DNA 2: CTGACTTGTTGTGGTCTCTGCCACTTCCTGGGGTGT
On to B8, for which the binding signal is 1810 PBM fluorescence, median of replicate spots.

B9: Table S2 A row 1201 (dsDNA)
DNA 1: GTTGAGTTCCGGGGGAGGTTGAGTTCCTGCGGTCAA
DNA 2: TTGACCGCAGGAACTCAACCTCCCCCGGAACTCAAC
For B9, the binding signal was 1630 PBM fluorescence, median of replicate spots.

B10: Table S2 A row 1108 (dsDNA)
DNA 1: CATGGGGAGGAGGAAGTGGTGGCGGCCGCAGGCCAG
DNA 2: CTGGCCTGCGGCCGCCACCACTTCCTCCTCCCCATG
Turning to B10, the binding signal is 2880 PBM fluorescence, median of replicate spots.

B11: Table S2 A row 762 (dsDNA)
DNA 1: CAGAAAGAGGAAATGATGCGAGTCCACACCGCAGGC
DNA 2: GCCTGCGGTGTGGACTCGCATCATTTCCTCTTTCTG
For the molecule B11, the binding signal was 2620 PBM fluorescence, median of replicate spots.

B12: Table S2 A row 388 (dsDNA)
DNA 1: GCAGTTTCAAGAGGATGTGGTCTCTTTCACTGCCTG
DNA 2: CAGGCAGTGAAAGAGACCACATCCTCTTGAAACTGC
For B12, the binding signal is 1800 PBM fluorescence, median of replicate spots.

B13: Table S2 A row 988 (dsDNA)
DNA 1: TCATGCTGCTTCCTGCCCAACCCGCAGTTCCGATAA
DNA 2: TTATCGGAACTGCGGGTTGGGCAGGAAGCAGCATGA
For B13, the binding signal is 1730 PBM fluorescence, median of replicate spots.

B14: Table S2 A row 276 (dsDNA)
DNA 1: CAGCTGACAGGAAGGAGAGAACCACAGACAGTGCGA
DNA 2: TCGCACTGTCTGTGGTTCTCTCCTTCCTGTCAGCTG
For the molecule B14, the binding signal was 2270 PBM fluorescence, median of replicate spots.

B15: Table S2 A row 340 (dsDNA)
DNA 1: CAGAGCAGAGAGGAAGTGGTGGTGGCCACAGTCCCA
DNA 2: TGGGACTGTGGCCACCACCACTTCCTCTCTGCTCTG
On to B15, for which the binding signal was 2770 PBM fluorescence, median of replicate spots.

B16: Table S2 A row 140 (dsDNA)
DNA 1: AGTTACAGTAAAGGATGTGGTGAAACAGATGTTTAT
DNA 2: ATAAACATCTGTTTCACCACATCCTTTACTGTAACT
In the case of B16, the binding signal is 1480 PBM fluorescence, median of replicate spots.

B17: Table S2 A row 1075 (dsDNA)
DNA 1: GTTGCAGGAAACGATGGGTTTTGTGGTATGAACTGC
DNA 2: GCAGTTCATACCACAAAACCCATCGTTTCCTGCAAC
For B17, the binding signal is 2140 PBM fluorescence, median of replicate spots.

B18: Table S2 A row 692 (dsDNA)
DNA 1: TGCGAGGTTGCCAGGAAACCGCGAAGCCGAGGTCCC
DNA 2: GGGACCTCGGCTTCGCGGTTTCCTGGCAACCTCGCA
Regarding B18, the binding signal is 2180 PBM fluorescence, median of replicate spots.

B19: Table S2 A row 1056 (dsDNA)
DNA 1: GGGTCTCCAGGAAGCCACTCACCACAAACTTTGACA
DNA 2: TGTCAAAGTTTGTGGTGAGTGGCTTCCTGGAGACCC
Consider B19, for which the binding signal is 1560 PBM fluorescence, median of replicate spots.

B20: Table S2 A row 1340 (dsDNA)
DNA 1: CATTTCAGTCCAGGATGTGGGTGCACACACCGCTTC
DNA 2: GAAGCGGTGTGTGCACCCACATCCTGGACTGAAATG
Take B20: the binding signal is 2860 PBM fluorescence, median of replicate spots.

B21: Table S2 A row 979 (dsDNA)
DNA 1: GCGCGGCCCGGAAGGGGGTAACCGCTGAGTCTTTGA
DNA 2: TCAAAGACTCAGCGGTTACCCCCTTCCGGGCCGCGC
For B21, the binding signal is 1910 PBM fluorescence, median of replicate spots.

B22: Table S2 A row 315 (dsDNA)
DNA 1: GAAAAATGAAGTTTCCGCAGTAACCACAACACAGCC
DNA 2: GGCTGTGTTGTGGTTACTGCGGAAACTTCATTTTTC
In the case of B22, the binding signal was 1900 PBM fluorescence, median of replicate spots.

B23: Table S2 A row 670 (dsDNA)
DNA 1: TGAGCACAGTATTTCCTGTGGTTTCTATTGCATTTC
DNA 2: GAAATGCAATAGAAACCACAGGAAATACTGTGCTCA
For B23, the binding signal was 1550 PBM fluorescence, median of replicate spots.

B24: Table S2 A row 101 (dsDNA)
DNA 1: GAGGGACAGGATGCCGCCAGGAACCACAAGAGCTTC
DNA 2: GAAGCTCTTGTGGTTCCTGGCGGCATCCTGTCCCTC
Take B24: the binding signal is 2530 PBM fluorescence, median of replicate spots.

B25: Table S2 A row 843 (dsDNA)
DNA 1: CCTTGCTACAGGATGTTTTGACCACGAGCCCAGGAG
DNA 2: CTCCTGGGCTCGTGGTCAAAACATCCTGTAGCAAGG
On to B25, for which the binding signal was 2240 PBM fluorescence, median of replicate spots.

B26: Table S2 A row 1482 (dsDNA)
DNA 1: CCATCCAGGAAGCTTATGGTGCAACCGCAGTGTGCC
DNA 2: GGCACACTGCGGTTGCACCATAAGCTTCCTGGATGG
For B26, the binding signal was 2210 PBM fluorescence, median of replicate spots.

B27: Table S2 A row 308 (dsDNA)
DNA 1: GCCGCTGCCTCTTCCTGTGTGGTTTTTCAGGGCTTA
DNA 2: TAAGCCCTGAAAAACCACACAGGAAGAGGCAGCGGC
As for B27, the binding signal was 1610 PBM fluorescence, median of replicate spots.

B28: Table S2 A row 789 (dsDNA)
DNA 1: TCCCACTGCGACGGAAGCACAGCGGTTAAGATTGCA
DNA 2: TGCAATCTTAACCGCTGTGCTTCCGTCGCAGTGGGA
With B28, the binding signal was 2460 PBM fluorescence, median of replicate spots.

B29: Table S2 A row 1175 (dsDNA)
DNA 1: TTGCTCCCGGAAGCCCCGCCCGACCGCGGCTCCTGA
DNA 2: TCAGGAGCCGCGGTCGGGCGGGGCTTCCGGGAGCAA
Regarding B29, the binding signal is 1960 PBM fluorescence, median of replicate spots.

B30: Table S2 A row 337 (dsDNA)
DNA 1: ATAGTCTCTTCCTGTGTTGCAAACCACAGGTCCACC
DNA 2: GGTGGACCTGTGGTTTGCAACACAGGAAGAGACTAT
On to B30, for which the binding signal was 1690 PBM fluorescence, median of replicate spots.

B31: Table S2 A row 548 (dsDNA)
DNA 1: CTCTCACTTCCCGTGTGAGAAAAACCACAGAAAAGC
DNA 2: GCTTTTCTGTGGTTTTTCTCACACGGGAAGTGAGAG
Regarding B31, the binding signal was 2080 PBM fluorescence, median of replicate spots.

B32: Table S2 A row 108 (dsDNA)
DNA 1: CACTTCCTGTCAAAGCCAGTTCCTTAACCGCTTAGG
DNA 2: CCTAAGCGGTTAAGGAACTGGCTTTGACAGGAAGTG
As to B32, the binding signal is 2540 PBM fluorescence, median of replicate spots.

B33: Table S2 A row 1129 (dsDNA)
DNA 1: CACTTCCTCCTCGGGGGCCTCAGAAAACCACAGGGC
DNA 2: GCCCTGTGGTTTTCTGAGGCCCCCGAGGAGGAAGTG
Consider B33, for which the binding signal is 1580 PBM fluorescence, median of replicate spots.

B34: Table S2 A row 1411 (dsDNA)
DNA 1: GAGGGGGAGGTTTCCGGGGCCTGTGGTTACTACACT
DNA 2: AGTGTAGTAACCACAGGCCCCGGAAACCTCCCCCTC
Consider B34, for which the binding signal was 1620 PBM fluorescence, median of replicate spots.

B35: Table S2 A row 224 (dsDNA)
DNA 1: GACCAATGTAAACAAGGATGTGGGTTCTCCGGGCAC
DNA 2: GTGCCCGGAGAACCCACATCCTTGTTTACATTGGTC
Turning to B35, the binding signal is 2020 PBM fluorescence, median of replicate spots.

B36: Table S2 A row 37 (dsDNA)
DNA 1: AGAATCGCATCAGGATGTGGTGAGGGAGCACATTTG
DNA 2: CAAATGTGCTCCCTCACCACATCCTGATGCGATTCT
In the case of B36, the binding signal is 2110 PBM fluorescence, median of replicate spots.

B37: Table S2 A row 1256 (dsDNA)
DNA 1: AGCCGTCATTCAGGATGTGGTGACAGACATGGAGAC
DNA 2: GTCTCCATGTCTGTCACCACATCCTGAATGACGGCT
For B37, the binding signal is 2490 PBM fluorescence, median of replicate spots.

B38: Table S2 A row 1754 (dsDNA)
DNA 1: AACAGTTGCATAGGAAGTGGTCAGCTCTCCTCCACC
DNA 2: GGTGGAGGAGAGCTGACCACTTCCTATGCAACTGTT
Take B38: the binding signal is 2050 PBM fluorescence, median of replicate spots.

B39: Table S2 A row 1399 (dsDNA)
DNA 1: TCGCACCGGAACCCCTTGGCGGATTATGTGGGTTCC
DNA 2: GGAACCCACATAATCCGCCAAGGGGTTCCGGTGCGA
Consider B39, for which the binding signal was 1490 PBM fluorescence, median of replicate spots.

B40: Table S2 A row 240 (dsDNA)
DNA 1: CAGGCTCGCCACAGGGGAAGTGGTTAGGGCGGGTCC
DNA 2: GGACCCGCCCTAACCACTTCCCCTGTGGCGAGCCTG
Consider B40, for which the binding signal was 2340 PBM fluorescence, median of replicate spots.

B41: Table S2 A row 83 (dsDNA)
DNA 1: GACAGACCTTAGGAAGTCGCGGTTTCATCAGGGCTT
DNA 2: AAGCCCTGATGAAACCGCGACTTCCTAAGGTCTGTC
Regarding B41, the binding signal was 1710 PBM fluorescence, median of replicate spots.

B42: Table S2 A row 294 (dsDNA)
DNA 1: GCAGGACTTCCTGTGTTGTGCTAACCTCAAATTACA
DNA 2: TGTAATTTGAGGTTAGCACAACACAGGAAGTCCTGC
B42: the binding signal is 2660 PBM fluorescence, median of replicate spots.
